The DeepSol protein solubility set

Assay: soluble on expression in E. coli; label from the status in PepcDB or PDB records
In the case of “MNKQPGQQPLRSLSLTSAAKSPEEVEPEQDSKKGEPRAKAAGFGGGGGGGKRLPEARSTPMVIPNQVAAMPVQMTGFVQLVANNILSAIAHTNSVMVVQCIKPLEIFTGFETPNRYVVHDMYCRPLLYCMERSNIFARQYEGNDRNFGMQIMDTHGAQVMTCFRGRPCCSTDDFLSTQFLDQQIGMMKKECCNPNFELVGSGCNQPLLIQSPGCAGCGGTQKFPVMTFNGVLVGEIVRLYPGFMQEMFTDADTYIVHFPMDMPPILKLLLVTSVFLIDFTYFEDRNQDQHRNGGMHSGMHSSF”, the “soluble on expression in E. coli” value is reported as “not soluble”.
With “MFMEFSAGLMPLETALTQMLSRITPLTAVETLPLVNCFGRILATDIVSPLDVPGFDNSAMDGYAVRVADLSADKPLPVAGKAFAGQPYQGEWPAGTCIRIMTGAPVPAGCEAVVMQEQTEQTDDGVRFTADVRCGQNIRRRGEDIRQDAVVFPAGTRLTTAELPVLASLGIADAQVVRKVRVALFSTGDELQLPGQPLEAGQIYDTNRLTIHLMLQQLGCEVINLGIIPDDPGKLRAAFIDADSQADVVISSGGVSVGEADYTKTILEELGEIAFWKLAIKPGKPFAFGKLSNSWFCGLPGNPVSAALTFYQLVQPLLAKLGGNTASAVPPRQRVRTASRLKKTPGRLDFQRGILQRSANGELEVTTTGHQGSHIFSSFSLGNCFIVLERERGNVEPGEWVEVEPFNALFGGL” the “soluble on expression in E. coli” value was “not soluble”.
With “MSDIKNITKLQIEDKGKKYSLYSLKKLSQELGKDVTRLPYSIRVLLENQLRNIDGYKVKEDDMHKVLDWDAKASSRPEIPHMPARVVMQDFTGVPAVVDLAAMRKAIKDAGGDADKINPLVDTAMVIDHSVQVDFYGTKTALAQNVAKEFERNGERYSLLKWAQKAFDDFIVVPPGMGIIHQVNLEYLAKGALVKNINGEDVIYPDTLVGTDSHTTMINGVGVVGWGVGGIEAEAVMLGQPYYMVLPDVVGVKFTGKLKTGVTATDLVLKVTEVLRKHGVVGKFVEYYGEGLESLSLPDRATIANMAPEYGATIGFFPVDEVTLDFFNNTNRSELVDAAREMYKEQLLFRENPAEEPEYSSIVEIDLSEVESNLAGPKRPQDRVAFHDMKKAFAEALVHEQGLHGFGLTDEQLQKLAEVKGLNERITHGSVAIAAITSCTNTSNPSLLLGAGLLAKKANEKGLKVKPFVKTSLAPGSQVVTQYLEKANLLPELENLGFNLVGYGCTTCIGNSGPLDEPVVEAINEADLIVASVSSGNRNFEGRINPHVKANYLASPIHVVAYALAGTVDFDPVEDAIGKDAEGNDVYLADIWPTTEEIAAIQSHVINSDMFKKAYATVLDGTEDWQKLKAPEGKLYEFDSSSTYIQCPNFFEKFAEGNDDLDIKGARTLLMLGDSVTTDHISPAGAIPEEYPAGQYLKSHGVEKKDFNSYGSRRGNHEVMMRGTFANIRIRNLLLDNVEGGFTKYHLDGSQQYVFDAAMKYKEKGIPLVILAGKEYGTGSSRDWAAKGTFLLGVKAVIAESYERIHRSNLVGMGVLPLEYVNGQNAKTLGLDGTEMFNIKNLNNIKPRQIVIVEAVHPKTAHTTTFEALARLDADVDVDYLKNGGILQTVLKDIMGDKKESKSTQSTTSKGCGSADTSSETSCPFAKIANFFKKLFK” the “soluble on expression in E. coli” value was “not soluble”.
With “MIDWDDLECRVAREESRHQAGIGTCSLALQIGFFFDGLKRNINVDEESQRLTNVGRLFRAHSFEIKASLTSAYSSAKIYVPGLGTLLDDTPSERLDSILDARQQALPEDYADALVEQGKETAVDTVKGVFKEDWSQVLSNKLGDLVTMKSGFDATVSAAKKAATRALLEATEPIRDNPIVAELLMTGVDARVDLAKNKFKESIVLSKKENQLPIKLVQISVFGADLGAALARRFIDELLESVCTKVGNEYRYEDSKVEVIFAGLFDCTRRSSMDMGDTVATISDGAGLVARHPVVGLITTAFGAKVITFDKPLHPAVKKALHLIAAHERREYRPLLPLGPLRSGWREVLCPGISEDVTGGLLPDEQRPSAELCRVPLRQMYETARRAQVPFPNFSILDAKNPRVAQYFIMQDSRLGYSAKKYSEYYSKWVGKMNPTPEAFELHMIHYCFWLGEKLHDYKILRQNVSGSERDKLNAQWGWLIQVGRDAENVLRSRGLSRQMYRGADLVKFFNGIKRVPREADIFFNYFMHDFTSEELKFATLNEQANTMLRNNNFFVPRGIEILAVDDEAAALEHHHHHH” the “soluble on expression in E. coli” value was “soluble”.
With “MRVEIIFLGCGGGRWATITQKKATGGFRIHTNELRMHVDPGPGAIVRLNELKISPWRTNALFISHCHPDHYTDGEIIVEAITQGMTKKRGVFLGSLSVVEGFGEYEYVVSKYHQSKLEEVRVLYPGDSAELYDTTIKATHTKHGDPFGIGFRLSTIYGDIGYTSDTEFIPQLIEDFDGVRILIANIVRKKNERIKGHLCSNDAIDLINSMNKKPELLIMNHMGVKMTNPQIEAEYISQNTGIEVIPARLGLKVELLNGKYKYQLIKLEHHHHHH” the “soluble on expression in E. coli” value was “soluble”.
With “MKEVIFTENAPKPIGPYSQAIKAGNFLFIAGQIPIDPKTGEIVKGDIKDQTRQVLENIKAILEAAGYSLNDVIKVTVYLKDMNDFAKMNEVYAEYFGESKPARVAVEVSRLPKDVLIEIEAIAYKE” the “soluble on expression in E. coli” value was “soluble”.
With “MGSDKIHHHHHHMAFNIDGSGNKSGVRSNMLSENNILKYGSNFSKANASSLNNKINSLNYTVEYINNELMGIFFRQGLKFGIFKAVEDFRPTISELITILGYPNEEFVEKYIKTAVSLNLLNLNEEERLELNSDFIYSSIHPEYDKIISDHVSRYDFMSGLVQYAFIGYDHPEILLNFKKDADIWDMMLNTKYMKTCREVISEYLDIKNGDTILEVGCGSRSPLYFASKVAPNGEYVGVDISKKLIRVAQGRLKRSGIECAKLKALDFSETIAKNKHDYVLCIHTLSYADSLKLFLKKMMGSLRKGGKLVIMEEFFTENINTNAELFEFYNHLNKYFKNYVSKTEILKELELIGIDYKYELLGDNCIVVERI” the “soluble on expression in E. coli” value was “not soluble”.
In the case of “MGSDKIHHHHHHMQIDDFASNLRLLCSTESSVSAVCRQIGVNRQQFSKYLSGAARPSPSNMRKIAVHFGVRPAEFMLPADEFESHPSVAGKLVGPSVTHSDRDGFESAFRGQTIPLRRYLGYYLSYFLTQSWENSIICAIVRLDEVNGLIRCRSLERSIDPDDGSLYLSKYDGRVAMLGNRIFVMEYQTLARDALVETVLYPVGRGQLQYLRGTTFGITSRQRTPFTSPVVWRYLDDFPTLRDVMRKVGRYDINSAKLDPTARSILLGGHNKGTD”, the “soluble on expression in E. coli” value is reported as “not soluble”.
For “MGSDKIHHHHHHMKVNLPAFERAGVMVVGDVMLDRYWYGPTCRISPEAPVPVVKVNTVEERPGGAANVAMNIASLGANARLVGLTGIDDAARALSKTLAEVNVKCDFVSVPTHPTITKLRVLSRNQQLIRLDFEEGFEGVDPQPLHERINQALGSIGALVLSDYAKGALTSVQTMISLARQAGVPVLIDPKGTDFERYRGATLLTPNLSEFEAVAGKCKSEDELVERGMKLIADYDLSALLVTRSEQGMTLLQPNKAPLHMPTQAQEVYDVTGAGDTVIGVLAATLAAGNTLEEACYFANAAAGVVVGKLGTSTVSPIELENAVRGRADTGFGVMTEEELRQAVASARKRGEKVVMTNGVFDILHAGHVSYLANARKLGDRLIVAVNSDASTKRLKGESRPVNPLEQRMIVLGALESVDWVVSFEEDTPQRLIAGILPDLLVKGGDYKPEEIAGSEEVWANGGEVMVLNFEDGCSTTNIIKKIQTESEK”, the “soluble on expression in E. coli” value was “not soluble”.
In the case of “MLKYMLDTNIAIYVIKRRPIEVLVTFNRYADMMCVSAVTEAELLHGAEKSRQREHNLRQVADFLSRLEVLSYTSKAAGHYGDIRADLERKEKPIGVNDLHIAAHARSEGFILVSNNLREFERVDGLRLENWIT”, the “soluble on expression in E. coli” value is reported as “not soluble”.
For “MGHHHHHHSHMIGKCTHVVDCRETMGMGEGGGIAQRGTFAQCGSEVLAVAMSPGRRHITKPVCEITFALREANIMTSTIVLNAGAGVPQDAPSAGAGSLFGLTPAEVEQMKRHKLLVVHLGGVKNHITYKARLILRNVDRPCIIICEYPVDFEDFAKIGVRTRAVMPDEPKTKGTIVDIVSGVIRGETCPQEKLDEIIRKVKLALGGA”, the “soluble on expression in E. coli” value was “soluble”.
With “GMQIESFKSLLPKYKCIFFDAFGVLKTYNGLLPGIENTFDYLKAQGQDYYIVTNDASRSPEQLADSYHKLGLFSITADKIISSGMITKEYIDLKVDGGIVAYLGTANSANYLVSDGIKMLPVSAIDDSNIGEVNALVLLDDEGFNWFHDLNKTVNLLRKRTIPAIVANTDNTYPLTKTDVAIAIGGVATMIESILGRRFIRFGKPDSQMFMFAYDMLRQKMEISKREILMVGDTLHTDILGGNKFGLDTALVLTGNTRIDDAETKIKSTGIVPTHICESAVIEL” the “soluble on expression in E. coli” value was “soluble”.
For “MSDATYADAVIMEMNGRDIEIVSIKPQTTTGRKPVKTMNRNGRVNGYCDGVTEHKLSVTAAIPIDGTEIDWDNITKAKITIYPINDEDRRTSYLDCFTVDTGEQYEVDNEARIDIEMIALHKIKE”, the “soluble on expression in E. coli” value was “not soluble”.
In the case of “MGEETIAAIATGAGEGGIGIVRISGADALQVAERIFRPRRGRPLGCRRSHTVTYGWVVTPGGDRIDEALALVMRGPHSYTGEDVVELQCHGGQLAVRRVLEQALQAGARLAEPGEFTRRAFLNGRLDLSQAEAVVDLIRAKTDRAMAAAVAHLGGSLRQAVGRIRERLMEMMAHLEADIDFPELELEVQTREEVAAGCGWCLGEVERLLGGARTGRILREGLRAVLAGRPNVGKSSLLNRLVRENRAIVTPIPGTTRDVIAEWVELGGVPVQLFDTAGLRPTDDPVERIGVARTHEALAQAHLVLVVVDAAAGLGPEDREWISQLPQGAARVGVANKIDLNPAFELSALREALGGAPVVGVSAETGEGLDALEAEVARVAGAFDASEELLVNTRQAEAIRRARNHLRDAQATLESGLGDELVAIDLRAAWMALGEVTGETAGEELLDQIFSRFCIGK”, the “soluble on expression in E. coli” value is reported as “soluble”.
With “AVGNATQPLLVVEDSDEDFSTFQRLLQREGVVNPIYRCITGDQALDFLYQTGSYCNPDIAPRPAVILLDLNLPGTDGREVLQEIKQDEVLKKIPVVIMTTSSNPKDIEICYSYSISSYIVKPLEIDRLTETVQTFIKYWLDIVVLPEMG” the “soluble on expression in E. coli” value was “soluble”.
For “MGSDKIHHHHHHMLCENCHFNEAEVKLTVKGIDSTHEKWVCSVCAQGENPWLHSNDDNTYHTHQDDIEEAFVVKQILQHLAAKHGINFHEMAFKEEKKCPTCQMTLKDIAHVGKLGCADCYATFKEDIIDIVQRVQGGQFEHVGKTPQSSYKKLAIKKQIEEKSKYLNKLIDGQEFEEAAIVRDEIKALKSESEVSHDE”, the “soluble on expression in E. coli” value was “not soluble”.
For “MELSRGASAPDPDDVRPLKPCLLRRNHSRDQHGVAASSLEELRSKACELLAIDKSLTPITLVLAEDGTIVDDDDYFLCLPSNTKFVALACNEKWTYNDSDGGTAWVSQESFEADEPDSRAGVKWKNVARQLKEDLSSIILLSEEDLQALIDIPCAELAQELCQSCATVQGLQSTLQQVLDQREEARQSKQLLELYLQALEKEGNILSNQKESKAALSEELDAVDTGVGREMASEVLLRSQILTTLKEKPAPELSLSSQDLESVSKEDPKALAVALSWDIRKAETVQQACTTELALRLQQVQSLHSLRNLSARRSPLPGEPQRPKRAKRDSS”, the “soluble on expression in E. coli” value was “soluble”.
With “GKVEERWTKTTDGKQMLSWVIYPVNFDANKKYPTLLFCEGGPQSPVSQFWSYRWNFQIMAANDYIIIAPNRRGLPGFGMEWLEQISGDYGGQCMKDYLSAIDDISKEPYVDTNRLGCVGASFGGFSVYWLAGHHDKRFKAFIAHDGIFNMEQQYLETEEMWFANWDMGGAYWDKNNATAQRTFANSPHRFVDKWDTPILCIHGEKDYRILASQGMSAFNAAVLRGVPAELLLYPDENHWVLKPQNGVLWQRTFFSWLDKWLK” the “soluble on expression in E. coli” value was “not soluble”.
With “MSLPDATVVKAFLLDLQHRICAGLEQLDGQASFAADSWTRAEGGGGTSRVLTQGAVFEQAGVNFSHVTGAAMPASATAHRPELAGRSFEAMGVSLVIHPKNPYIPTTHANVRFFIAHKDGAEPVWWFGGGFDLTPYYPFEEDVREWHQSAKNLCQPFGDDVYPKYKKWCDEYFFLPHRNETRGVGGLFFDDLNQAGFDKSFDFMQAVGNGFLTAYAPIVERRKDTDYGERERDFQLYRRGRYVEFNLVYDRGTLFGLQTGGRTESILMSMPPLVRWQYAYTPAAGSPEADLYDNYLKPRDWVLEHHHHHH” the “soluble on expression in E. coli” value was “not soluble”.
